{"source": "patent US20220073631A1", "about": "(QYUNS THERAPEUTICS, published 2022)", "binders": {"B1": {"name": "QX005N (PD2-31) (antibody, V domains shown)", "VH": "EVQLVESGGGLVQPGGSLRLSCAASGIDLRTNSMSWVRQAPGKGLEWVGIIGSSGYMDYASWAKGRFTISRDNSKNTLYLQMNSLRAEDTAVYYCARHGDSSSFALWGQGTLVTVSS", "VL": "DIQMTQSPSSLSASVGDRVTITCRASESVYKNNRLSWYQQKPGKAPKLLIYEASKVASGVPSRFSGSGSGTDFTLTISSLQPEDFATYYCAGAYRGNIYPFGQGTKVEIK", "notes": "Humanized from rabbit clone #2, expressed as a full antibody in ExpiCHO-S cells (heavy chain 48.5 kDa, light chain 23.7 kDa)"}}, "assay_in_all_cases": "SPR, Biacore T200, by the methods of Example 2", "key": {"[1]": {"target": "T1, extracellular domain of marmoset IL-4Rα (Gly 24-His 232) with C-terminus his-tag (marmoset)", "T1 construct": "range 24-232; Made in HEK 293F cells and purified on nickel"}, "hIL-4Rα-Mu241": {"target": "T2, hIL-4Rα-Mu241 (human, UniProt P24394 26-232)", "T2 construct": "Printed positions fit the mature protein; also called D67A/V68R/V69F; not shown: C-terminal his-tag", "T2 chain": "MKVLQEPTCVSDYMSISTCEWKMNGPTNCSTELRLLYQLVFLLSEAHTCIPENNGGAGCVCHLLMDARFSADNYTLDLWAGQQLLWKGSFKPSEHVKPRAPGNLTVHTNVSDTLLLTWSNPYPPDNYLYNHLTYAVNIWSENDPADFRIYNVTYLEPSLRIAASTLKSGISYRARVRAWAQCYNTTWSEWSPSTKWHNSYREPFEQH", "method": "(§1) The protein A was chemically coupled to a CM5 chip, and an appropriate amount of the antibody was immobilized by a capture method such that the Rmax was less than 50 RU and the flow rate for the capture was 10 μl/min. The antigen was subject to gradient dilution, and the flow rate in the instrument was switched to 30 μl/min. The antigen was flowed through the reference channel and the channel with the immobilized antibody sequentially in an ascending order of concentration, and the running buffer was flowed through as a negative control. After each binding and dissociation was complete, the chip was regenerated with glycine, pH 1.5. Fitting was performed with the build-in software in the instrument according to a 1:1 binding model. The binding rate constant kₐ, the dissociation rate constant kd, and the equilibrium dissociation constant KD values of the antibody were calculated. Dupilumab was obtained by purchasing a commercially available medicine.\n(§2) To further narrow down the key amino acids that PD2-31 binds to, multiple mutants of hIL-4Rα were designed in Loop 2 (V40FLLSEA46) and Loop 3 (M65[…]73) (Table 2). The wild-type hIL-4Rα (hIL-4Rα-ECD) and hIL-4Rα mutants were prepared using standard techniques. Briefly, the expression plasmids containing the extracellular domain of wild-type hIL-4Rα and different mutated hIL-4Rα were constructed and transfected into HEK 293F cells. After expression, the extracellular domain of wild-type hIL-4Rα and hIL-4Rα mutants with C-terminus his-tag were purified by Nickel chromatography. Purified proteins of wild-type hIL-4Rα and hIL-4Rα mutants were analyzed for interaction with PD2-31 and Dupilumab. The interaction was studied by Biacore T200, according to the methods in Example 2."}, "hIL-4Rα-Mu245": {"target": "T3, hIL-4Rα-Mu245 (human, UniProt P24394 26-232)", "T3 construct": "Printed positions fit the mature protein; also called A71L/D72R/N73A; not shown: C-terminal his-tag", "T3 chain": "T2 chain with A67D, R68V, F69V, A71L, D72R, N73A", "method": "as §1, §2"}, "hIL-4Rα-Mu240": {"target": "T4, hIL-4Rα-Mu240 (human, UniProt P24394 26-232)", "T4 construct": "Printed positions fit the mature protein; also called D66A/D67A/V68R; not shown: C-terminal his-tag", "T4 chain": "T2 chain with D66A, F69V", "method": "as §1, §2"}}, "note": "Where a chain is given by its changes, count along the chain named.", "data": [{"binder": "B1", "values": [{"measurement": "Kd", "setting": "[1]", "result": "~100", "unit": "pM"}, {"measurement": "Kd", "setting": "hIL-4Rα-Mu241", "result": 474, "unit": "pM"}, {"measurement": "koff", "setting": "hIL-4Rα-Mu241", "result": "6.59e-05", "unit": "s⁻¹"}, {"measurement": "kon", "setting": "hIL-4Rα-Mu241", "result": 139000, "unit": "M⁻¹ s⁻¹"}, {"measurement": "Kd", "setting": "hIL-4Rα-Mu245", "result": 1450, "unit": "pM"}, {"measurement": "koff", "setting": "hIL-4Rα-Mu245", "result": 0.00029, "unit": "s⁻¹"}, {"measurement": "kon", "setting": "hIL-4Rα-Mu245", "result": 201000, "unit": "M⁻¹ s⁻¹"}, {"measurement": "Kd", "setting": "hIL-4Rα-Mu240", "result": 750, "unit": "pM"}, {"measurement": "koff", "setting": "hIL-4Rα-Mu240", "result": "5.23e-05", "unit": "s⁻¹"}, {"measurement": "kon", "setting": "hIL-4Rα-Mu240", "result": 69800, "unit": "M⁻¹ s⁻¹"}]}]}
